T1: Kir2.1-mediated IK1 current (Rattus norvegicus, UniProt Q64273)
T1 construct: endogenous in cells; host or cells: rat ventricular cardiomyocytes (RVCMs)
T1 sequence (Q64273 1-427): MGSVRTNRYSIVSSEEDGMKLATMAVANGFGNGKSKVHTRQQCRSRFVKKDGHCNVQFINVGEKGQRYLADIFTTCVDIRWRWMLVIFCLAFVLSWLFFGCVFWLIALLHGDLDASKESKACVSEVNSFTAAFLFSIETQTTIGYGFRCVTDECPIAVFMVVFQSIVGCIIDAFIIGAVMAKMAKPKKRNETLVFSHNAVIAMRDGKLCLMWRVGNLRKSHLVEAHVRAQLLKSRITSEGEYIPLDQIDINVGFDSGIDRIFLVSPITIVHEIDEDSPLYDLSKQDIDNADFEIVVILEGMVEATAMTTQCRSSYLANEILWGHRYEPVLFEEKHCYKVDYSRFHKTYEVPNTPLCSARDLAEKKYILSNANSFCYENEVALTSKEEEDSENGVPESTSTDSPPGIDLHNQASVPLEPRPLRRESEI

B1: SENP1: purified deSUMOylating enzyme (SUMO specific protease) introduced via the recording pipette or expressed (protein, UniProt Q9P0U3 1-644, looked up)
Sentrin-specific protease 1: MDDIADRMRMDAGEVTLVNHNSVFKTHLLPQTGFPEDQLSLSDQQILSSRQGHLDRSFTCSTRSAAYNPSYYSDNPSSDSFLGSGDLRTFGQSANGQWRNSTPSSSSSLQKSRNSRSLYLETRKTSSGLSNSFAGKSNHHCHVSAYEKSFPIKPVPSPSWSGSCRRSLLSPKKTQRRHVSTAEETVQEEEREIYRQLLQMVTGKQFTIAKPTTHFPLHLSRCLSSSKNTLKDSLFKNGNSCASQIIGSDTSSSGSASILTNQEQLSHSVYSLSSYTPDVAFGSKDSGTLHHPHHHHSVPHQPDNLAASNTQSEGSDSVILLKVKDSQTPTPSSTFFQAELWIKELTSVYDSRARERLRQIEEQKALALQLQNQRLQEREHSVHDSVELHLRVPLEKEIPVTVVQETQKKGHKLTDSEDEFPEITEEMEKEIKNVFRNGNQDEVLSEAFRLTITRKDIQTLNHLNWLNDEIINFYMNMLMERSKEKGLPSVHAFNTFFFTKLKTAGYQAVKRWTKKVDVFSVDILLVPIHLGVHWCLAVVDFRKKNITYYDSMGGINNEACRILLQYLKQESIDKKRKEFDTNGWQLFSKKSQEIPQQMNGSDCGMFACKYADCITKDRPINFTQQHMPYFRKRMVWEILHRKLL

Target: T1, Kir2.1-mediated IK1 current
Experiment: Whole-cell patch-clamp of IK1 in rat ventricular cardiomyocytes under acute hypoxia
Type: cell-based
Conditions: for effect on hypoxic inhibition of IK1: ambient O2 to 2% O2, agent in pipette (SENP1 2 μM, SUMO1 1 μM, diC8-PIP2) or pretreatment (TAK981)
Experimental: IK1 in rat ventricular cardiomyocytes studied by whole-cell patch-clamp. Hypoxia was a drop in O2 from ambient levels to 2%, measured at the cell. The time-course of hypoxic-inhibition was studied by recording the magnitude of IK1 every second. Cells were studied with the following pipette solutions: control, SUMO1 (1 μM) or SENP1 (2 μM). IK1 was blocked by the addition of 3 mM Ba^2+. […] Left, representative current sweeps; right, a representative time course showing the kinetics of hypoxic inhibition in cardiomyocytes studied with control pipette solution. The inhibition is precluded by including SENP1 (2 μM, magenta) in the recording pipette. The reverse ramp recording protocol is inset. […] SENP1 augments IK1 and protects the current from hypoxia. Data are from 8-10 RVCMs per group, **** P<0.0001, paired, two-tailed Student's […]. […] Representative data are shown with DAPI labeled nuclei and PLA interactions. Summary data are obtained from multiple experiments each with multiple fields of view containing 20-30 nuclei. The scale bar is 10 μm.
To knockdown Kir2.1 expression, RVCMs were transduced with lentiviral particles carrying cGFP and shRNA targeting KCNJ2-mRNA for the channel. Kir2.1 knockdown cells (Kir2.1kd-CMs) were identified by expression of cGFP. Cells were studied with control pipette solution, or with pipette solutions containing purified SUMO1 (1 μM) or SENP1 (2 μM). Where indicated, the control pipette solution contained diC8 PIP2. Paired patch-clamp data were analyzed by Students t-test; ***, P<0.01. […] Kir2.1kd-CMs are identified by expression of GFP (inset, scale bar=10 μm). […] The arrow indicates the change in current-magnitude between exposure to ambient O2 and 2% O2 in the same cell. Right, Concentration-response curve showing that including diC8-PIP2 in the pipette opposes hypoxic-inhibition of IK1 in control RVCMs and RVCMs expressing the scrambled shRNA. The hypoxic-response is diminished in Kir2.1kd-CMs. Data are mean±s.d. for 7-8 cells per condition. […] Current inhibition is diminished when SENP1 is included in the recording pipette and is not observed when SUMO-insensitive Kir2.1-K49Q channels are studied. Data are mean±s.d. for 6 cells per condition.
Hypoxic-inhibition of Kir2.1 in cardiomyocytes via SUMOylation. We studied the effects of acute hypoxia on IK1 in rat ventricular cardiomyocytes (RVCMs) by whole cell patch-clamp recording. […] Both the hypoxia-sensitive and insensitive components of the current were blocked by Ba^2+ (3 mM), consistent with the known role of Kir2 channels in mediating IK1 (FIG. 1a). To determine if SUMOylation mediates the hypoxic inhibition of IK1 we introduced purified SENP1 (2 μM) to the cytosol via the recording pipette. […] Both the SUMO1 and hypoxia-mediated inhibition of IK1 remained stable throughout the remainder of the experiment (up to 10 mins). […] Next, we visualized and quantified the interactions between native Kir2.1 and SUMO1 in RVCMs using the proximity-ligation association (PLA) assay with antibodies we validated in heterologous cells by Western blot. […] The validated Kir2 antibodies were paired with SUMO1 antibodies that we have tested and utilized before. Under control conditions, interactions were observed between Kir2.1 and SUMO1, but not between Kir2.2 or Kir2.3 and SUMO1. […] Although cardiomyocytes are typically cultured at 21% O2, the O2-level in the myocardium is estimated to be in the range of 5-10% O2, under physiological conditions.
Hypoxic-inhibition of IK1/Kir2.1 is reduced by diC8-PIP2 in a concentration-dependent manner. We have shown that adding the exogenous, soluble PIP2 analog diC8-PIP2 into the patch-pipette opposes hypoxic-inhibition of IK1 (FIG. 4). […] As before, the effects of hypoxia were ameliorated by SENP1 (2 μM) and were not observed in the SUMO and hypoxia insensitive Kir2.1-K49Q channels (FIG. 4D).

Molecule | effect on hypoxic inhibition of IK1 | decrease in IK1 (SUMO1 1 μM in recording pipette) | increase in IK1 (purified SENP1 2 μM via recording pipette, mean±S.D.)
Cc1sc(C(=O)c2cncnc2N[C@@H]2C[C@H](COS(N)(=O)=O)[C@@H](O)C2)cc1[C@@H]1NCCc2ccc(Cl)cc21 [TAK981, Subasumstat] | precludes hypoxic inhibition of Kir2 currents | – | –
SUMO1: purified SUMO1 (small ubiquitin-related modifier) protein introduced via the recording pipette or co-expressed | hypoxia-sensitive component of the current was abolished | 48±8% | –
B1 | insensitive to hypoxia | – | 17.6±6.5%
